Measurements published in patent publication US20240084017A1.

Assays:
[1] = molecular target: human Mac-1 (integrin αMβ2, CD11b/CD18) (human) (UniProt P11215); assay: flow cytometry, HEK293/Mac-1 cells, PBS/MnCl2 (Mn2+), 10 µg/ml of this antibody; binding of reporter mAb KIM127 read
[2] = molecular target: human Mac-1 (integrin αMβ2, CD11b/CD18) (human) (UniProt P11215); assay: flow cytometry, HEK293/Mac-1 cells, PBS (Mock), 10 µg/ml of this antibody; binding of reporter mAb KIM127 read
[3] = molecular target: human Mac-1 (integrin αMβ2, CD11b/CD18) (human) (UniProt P11215); assay: flow cytometry, HEK293/Mac-1 cells, PBS/MnCl2 (Mn2+), 10 µg/ml of this antibody; binding of reporter mAb m24 read
[4] = molecular target: human Mac-1 (integrin αMβ2, CD11b/CD18) (human) (UniProt P11215); assay: flow cytometry, HEK293/Mac-1 cells, PBS (Mock), 10 µg/ml of this antibody; binding of reporter mAb m24 read
[5] = molecular target: human Mac-1 (integrin αMβ2, CD11b/CD18) (human) (UniProt P11215); assay: flow cytometry, HEK293/Mac-1 cells (clone 1-4), PBS/MnCl2 (Mn2+)
[6] = molecular target: human Mac-1 (integrin αMβ2, CD11b/CD18) (human) (UniProt P11215); assay: flow cytometry, HEK293/Mac-1 cells (clone 1-4), PBS (Mock)
[7] = molecular target: human Mac-1 (integrin αMβ2, CD11b/CD18) (human) (UniProt P11215); assay: flow cytometry, HEK293/Mac-1 cells; MFI in PBS over MFI in PBS/MnCl2
[8] = molecular target: human Mac-1 (integrin αMβ2, CD11b/CD18) (human) (UniProt P11215); assay: flow cytometry, HEK293/Mac-1 cells (clone 1-4), PBS/MnCl2 (Mn2+); isotype control
[9] = molecular target: human Mac-1 (integrin αMβ2, CD11b/CD18) (human) (UniProt P11215); assay: flow cytometry, HEK293/Mac-1 cells (clone 1-4), PBS (Mock); isotype control
[10] = molecular target: human Mac-1 (integrin αMβ2, CD11b/CD18) (human) (UniProt P11215); assay: flow cytometry, HEK293/Mac-1 cells; MFI in PBS over MFI in PBS/MnCl2; isotype control
[11] = molecular target: human Mac-1 (integrin αMβ2, CD11b/CD18) (human) (UniProt P11215); assay: flow cytometry, HEK293/Mac-1 cells, PBS (Mock); binding of reporter mAb m24 read; control IgG4, the reference set to 1
[12] = molecular target: human Mac-1 (integrin αMβ2, CD11b/CD18) (human) (UniProt P11215); assay: flow cytometry, HEK293/Mac-1 cells, PBS (Mock); binding of reporter mAb KIM127 read; control IgG4, the reference set to 1
[13] = molecular target: human Mac-1 (integrin αMβ2, CD11b/CD18) (human) (UniProt P11215); assay: flow cytometry, HEK293/Mac-1 cells, PBS/MnCl2 (Mn2+); binding of reporter mAb m24 read; control IgG4, the reference set to 1
[14] = molecular target: human Mac-1 (integrin αMβ2, CD11b/CD18) (human) (UniProt P11215); assay: flow cytometry, HEK293/Mac-1 cells, PBS/MnCl2 (Mn2+); binding of reporter mAb KIM127 read; control IgG4, the reference set to 1

KIM127 (Expression relative to IgG4) (relative to IgG4) [1]	KIM127 (Expression relative to IgG4) (relative to IgG4) [2]	m24 (Expression relative to IgG4) (relative to IgG4) [3]	m24 (Expression relative to IgG4) (relative to IgG4) [4]	Mn^2+ MFI [5]	Mock MFI [6]	Mock/Mn^2+ Ratio [7]	Substance	other results
0.84	0.94	0.8	0.71	–	–	–	M1/70 (antibody)	–
–	–	–	–	181000 MFI	143000 MFI	0.79	CD11b activation-sensing mAb (CBRM1/5) (antibody)	–
–	–	–	–	–	–	–	isotype control IgG (antibody)	Mn^2+ MFI [8]: 935 MFI; Mock MFI [9]: 941 MFI; Mock/Mn^2+ Ratio [10]: 1.01
–	–	–	–	–	–	–	IgG4 control (antibody)	m24 (Expression relative to IgG4) (relative to IgG4) [11]: 1; KIM127 (Expression relative to IgG4) (relative to IgG4) [12]: 1; m24 (Expression relative to IgG4) (relative to IgG4) [13]: 1; KIM127 (Expression relative to IgG4) (relative to IgG4) [14]: 1
0.75	0.94	0.66	0.66	801000 MFI	805000 MFI	1.01	CD11b specific mAb (clone ICRF44) (antibody)	–
